Reference: article PMC13430412

Experiments:
[1] = target: Rab7A(Q67L)-6xHis (human) (UniProt P51149); experiment: liposome co-flotation; purified VPS13C constructs with SUVs (5% DGS-NTA) bearing His-tagged protein, 1 mM GTP, 2 mM Mg2+, room temperature 20 min; OptiPrep gradient, top fraction by SDS-PAGE
[2] = target: Strep-tagged Rab7A (Q67L) (human) (UniProt P51149); experiment: pull-down; Strep-Rab7A(Q67L) and FLAG-tagged VPS13C constructs co-expressed in Expi293F; lysate (buffer A with 1 mM GTP, 2 mM MgCl2) on Strep-Tactin XT resin, eluted with biotin; SDS-PAGE with Coomassie and/or anti-FLAG western blot
Sequence of Strep-tagged Rab7A (Q67L) (human) (P51149 whole entry Q67L): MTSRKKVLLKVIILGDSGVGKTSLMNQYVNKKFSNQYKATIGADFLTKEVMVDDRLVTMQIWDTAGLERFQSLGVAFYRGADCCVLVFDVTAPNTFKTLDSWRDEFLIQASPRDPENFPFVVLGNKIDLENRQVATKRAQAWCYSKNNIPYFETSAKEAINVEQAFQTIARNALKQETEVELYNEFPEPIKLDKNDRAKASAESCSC

Sequence of Rab7A(Q67L)-6xHis (human) (P51149 whole entry Q67L): as above

For VPS13C-ΔATG2C-3xFLAG, Q709C8 1-3753, the fraction co-floated with SUVs bearing His-tagged Rab7A [1] was greater than 80%.
In the case of “VPS13C-3XFLAG (full-length human VPS13C with a C-terminal 3xFLAG tag), Q709C8 1-3753”, the fraction of total overexpressed VPS13 retained [2] is reported as 5%.
